Results published in patent publication US20070041944A1, “Treating tumors by ENH dislocation of ID proteins” (THE TRUSTEES OF COLUMBIA UNIVERSITY IN THE CITY OF NEW YORK, priority 2005, published 2007).

How the values were obtained:
GST-Id2 = molecular target: T1, GST-Id2 (Homo sapiens, UniProt Q02363); assay: GST pull-down assay with GST-Id2; format: binding; settings: in vitro-translated 35S-labeled proteins, autoradiography (FIG. 2B)
T1 construct: made in house; host or cells: E. coli BL21 Star (Invitrogen)
T1 sequence (Q02363 1-134): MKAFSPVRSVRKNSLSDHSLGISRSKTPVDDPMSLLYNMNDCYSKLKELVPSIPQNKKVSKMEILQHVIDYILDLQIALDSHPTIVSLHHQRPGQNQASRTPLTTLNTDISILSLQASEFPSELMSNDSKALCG
Protocol: (§1) GST Pull-Down Assay, Western Blot, and Coimmunoprecipitation: GST fusion proteins were purified from BL21 Star (Invitrogen). GST pull-down assay was performed as described in lavarone, A. et al., (1994), Genes Dev., 8:1270-1284. For Wetern blot analysis, cellular pellets were lysed in ice-cold RIPA buffer (50 mM Tris, pH 7.5/150 mM NaCl/1% Nonidet P-40/0.5% sodium deoxycholate/0.1% SDS) containing Complete Mini protease inhibitor pellet (Roche) and 1 mM PMSF. Lysates were electrophoresed on SDS/PAGE gels and transferred to nitrocellulose membrane (Amersham Pharmacia Biotech). Membranes were stained with antibodies against ENH, Id2 (Santa Cruz Biotechnology), and α-tubulin (Sigma), and blots were developed by using ECLWestem Blotting Detection System (Amersham Pharmacia Biotech). The anti-ENH antibody is a rabbit polyclonal that was produced in collaboration with Zymed against a peptide that is fully conserved in the mouse sequence (KQQNGPPRKHI (SEQ ID NO:1)). Coimmunoprecipitation of Id2 and ENH from cells transfected with pcDNA.3-Id2 and p3XFlag-ENH was performed as described (lavarone, A. et al., (2004), Nature, 432:1040-1045).
(§2) To validate the specificity of the binding between ENH and Id2 and identify the domains that mediate this interaction, GST fusion proteins and in vitro-translated proteins in pull-down assays.

GST-δHLHId2 = assay: GST pull-down assay with GST-Id2 lacking the HLH domain; format: binding; settings: in vitro-translated 35S-labeled ENH (FIG. 2B Right)
Protocol: as §1, §2

GST-Id3 = molecular target: T2, GST-Id3 (Homo sapiens, UniProt Q02535); assay: GST pull-down assay with GST-Id3; format: binding; settings: in vitro-translated 35S-labeled ENH (FIG. 2B Right)
T2 construct: made in house; host or cells: E. coli BL21 Star (Invitrogen)
T2 sequence (Q02535 1-119): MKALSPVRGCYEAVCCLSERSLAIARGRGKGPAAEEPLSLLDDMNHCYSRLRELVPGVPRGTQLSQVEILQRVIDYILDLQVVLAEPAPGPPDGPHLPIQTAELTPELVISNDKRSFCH
Protocol: as §1
Given the high homology among the HLH domains of the three Id proteins, it was asked whether Id1 and Id3 could also bind ENH in this assay. Indeed, both GST-Id1 and GST-Id3 bound to full-length ENH (FIG. 2B Right).

[1] = test system: Id2 inhibition of E47-mediated transcription; assay: E-box-luciferase reporter assay; format: cell-based, human; settings: E-box-luc with E47, Id2 and increasing amounts of ENH (0.375, 0.5, 0.625 μg); FIG. 6A
Protocol: Luciferase Assay: The luciferase reporter construct 5xE-box-luciferase (Lasorella, A. et al., (1996) Mol. Cell. Biol., 16:2570-2578) was cotransfected with pcDNA.3-E47 and pcDNA.3 vector or pcDNA.3-Id2 and pcDNA.3-ENH into SK-N-SH cells. pCMV-β-gal was cotransfected for normalization. Twenty-four hours later luciferase and β-galactosidase activities were measured as described (Lasorella, A. et al., (2000) Nature, 407:592-598).
To test the hypothesis that ENH restrains the inhibitory effects of Id2 on bHLH-mediated transcription by acting as a cytoplasmic retention factor for Id2, luciferase reporter assays were performed with five multimerized E-boxes driving expression of luciferase (E-box-luc). The E-box-luc plasmid was transfected in the presence of mammalian expression vectors for the ubiquitously expressed bHLH protein E47, Id2, and increasing amounts of ENH. Id2 inhibition of E47-mediated transcription was relieved by coexpression of ENH in a dose-dependent manner (FIG. 6A).

B1: ENH: actin cytoskeleton-associated PDZ-LIM protein ENH (Enigma Homologue), full-length, SEQ ID NO:4; also used Flag-tagged (protein, listed as Homo sapiens)
chain: MSNYSVSLVGPAPWGFRLQGGKDFNMPLTISSLKDGGKAAQANVRIGDVVLSIDGINAQGMTHLEAQNKIKGCTGSLNMTLQRASAAPKPEPVPVQKGEPKEVVKPVPITSPAVSKVTSTNNMAYNKAPRPFGSVSSPKVTSIPSPSSAFTPAHATTSSHASPSPVAAVTPPLFAASGLHANANLSADQSPSALSAGKTAVNVPRQPTVTSVCSETSQELAEGQRRGSQGDSKQQNGPPRKHIVERYTEFYHVPTHSDASKKRLIEDTEDWRPRTGTTQSRSFRILAQITGTEHLKESEADNTKKANNSQEPSPQLASSVASTRSMPESLDSPTSGRPGVTSLTTAAAFKPVGSTGVIKSPSWQRPNQGVPSTGRISNSATYSGSVAPANSALGQTQPSDQDTLVQRAEHIPAGKRTPMCAHCNQVIRGPFLVALGKSWHPEEFNCAHCKNTMAYIGFVEEKGALYCELCYEKFFAPECGRCQRKILGEVINALKQTWHVSCFVCVACGKPIRNNVFHLEDGEPYCETDYYALFGTICHGCEFPIEAGDMFLEALGYTWHDTCFVCSVCCESLEGQTFFSKKDKPLCKKHAHSVNF
binding of GST-Id2 to ENH constructs (GST-Id2): bound efficiently | binding of GST-δHLHId2 to ENH (GST-δHLHId2): failed to bind | binding of GST-Id3 to ENH (GST-Id3): bound | Id2 inhibition of E47-mediated transcription (luciferase activity) [1]: relieved
